Results published in IntAct's records for PubMed 30496485.

B1: Coiled-coil-helix-coiled-coil-helix domain-containing protein 2 (Homo sapiens), Q9Y6H1 (parent)
chain: MPRGSRSRTSRMAPPASRAPQMRAAPRPAPVAQPPAAAPPSAVGSSAAAPRQPGLMAQMATTAAGVAVGSAVGHTLGHAITGGFSGGSNAEPARPDITYQEPQGTQPAQQQQPCLYEIKQFLECAQNQGDIKLCEGFNEVLKQCRLANGLA
partner: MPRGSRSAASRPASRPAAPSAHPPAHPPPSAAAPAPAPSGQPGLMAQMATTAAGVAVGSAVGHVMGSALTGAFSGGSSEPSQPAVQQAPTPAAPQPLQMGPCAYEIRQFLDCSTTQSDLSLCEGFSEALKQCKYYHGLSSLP

Variants of: B1
Settings: with chc10_human CHCHD10, Q8WYQ3

| Variant | effect of a mutation on the interaction |
| --- | --- |
| MPRGSRSRTSRMAPPASRAPQMRAAPRPAPVAQPPAAAPPSAVGSSAAAPRQPGLMAQMAITAAGVAVGSAVGHTLGHAITGGFSGGSNAEPARPDITYQEPQGTQPAQQQQPCLYEIKQFLECAQNQGDIKLCEGFNEVLKQCRLANGLA [T61I] | disrupting interaction strength |
| MPRGSRSRTSRMAPPASRAPQMRAAPRPAPVAQPPAAAPPSAVGSSAAAPRQPGLMAQMATTAAGVAVGSAVGHTLGHAITGGFSGGSNAEPARPDITYQEPQGTQPAQQQQPCLYEIKQFLECAQNQGDIKLCEGFNEVLKQCQLANGLA [R145Q] | disrupting interaction strength |
